The chains are these.
B1: MCM4: protein with methylated lysine identified in 3xMBT pull-down (protein, UniProt P33991 2-863, looked up)
DNA replication licensing …: SSPASTPSRRGSRRGRATPAQTPRSEDARSSPSQRRRGEDSTSTGELQPMPTSPGVDLQSPAAQDVLFSSPPQMHSSAIPLDFDVSSPLTYGTPSSRVEGTPRSGVRGTPVRQRPDLGSAQKGLQVDLQSDGAAAEDIVASEQSLGQKLVIWGTDVNVAACKENFQRFLQRFIDPLAKEEENVGIDITEPLYMQRLGEINVIGEPFLNVNCEHIKSFDKNLYRQLISYPQEVIPTFDMAVNEIFFDRYPDSILEHQIQVRPFNALKTKNMRNLNPEDIDQLITISGMVIRTSQLIPEMQEAFFQCQVCAHTTRVEMDRGRIAEPSVCGRCHTTHSMALIHNRSLFSDKQMIKLQESPEDMPAGQTPHTVILFAHNDLVDKVQPGDRVNVTGIYRAVPIRVNPRVSNVKSVYKTHIDVIHYRKTDAKRLHGLDEEAEQKLFSEKRVELLKELSRKPDIYERLASALAPSIYEHEDIKKGILLQLFGGTRKDFSHTGRGKFRAEINILLCGDPGTSKSQLLQYVYNLVPRGQYTSGKGSSAVGLTAYVMKDPETRQLVLQTGALVLSDNGICCIDEFDKMNESTRSVLHEVMEQQTLSIAKAGIICQLNARTSVLAAANPIESQWNPKKTTIENIQLPHTLLSRFDLIFLLLDPQDEAYDRRLAHHLVALYYQSEEQAEEELLDMAVLKDYIAYAHSTIMPRLSEEASQALIEAYVDMRKIGSSRGMVSAYPRQLESLIRLAEAHAKVRLSNKVEAIDVEEAKRLHREALKQSATDPRTGIVDISILTTGMSATSRKRKEELAEALKKLILSKGKTPALKYQQLFEDIRGQSDIAITKDMFEEALRALADDDFLTVTGKTVRLL
modifications: methylated lysine
notes: protein with methylated lysine identified in 3xMBT pull-down
B2: DDX1: protein with methylated lysine identified in 3xMBT pull-down (protein, UniProt Q92499 1-740, looked up)
ATP-dependent RNA helicase …: MAAFSEMGVMPEIAQAVEEMDWLLPTDIQAESIPLILGGGDVLMAAETGSGKTGAFSIPVIQIVYETLKDQQEGKKGKTTIKTGASVLNKWQMNPYDRGSAFAIGSDGLCCQSREVKEWHGCRATKGLMKGKHYYEVSCHDQGLCRVGWSTMQASLDLGTDKFGFGFGGTGKKSHNKQFDNYGEEFTMHDTIGCYLDIDKGHVKFSKNGKDLGLAFEIPPHMKNQALFPACVLKNAELKFNFGEEEFKFPPKDGFVALSKAPDGYIVKSQHSGNAQVTQTKFLPNAPKALIVEPSRELAEQTLNNIKQFKKYIDNPKLRELLIIGGVAARDQLSVLENGVDIVVGTPGRLDDLVSTGKLNLSQVRFLVLDEADGLLSQGYSDFINRMHNQIPQVTSDGKRLQVIVCSATLHSFDVKKLSEKIMHFPTWVDLKGEDSVPDTVHHVVVPVNPKTDRLWERLGKSHIRTDDVHAKDNTRPGANSPEMWSEAIKILKGEYAVRAIKEHKMDQAIIFCRTKIDCDNLEQYFIQQGGGPDKKGHQFSCVCLHGDRKPHERKQNLERFKKGDVRFLICTDVAARGIDIHGVPYVINVTLPDEKQNYVHRIGRVGRAERMGLAISLVATEKEKVWYHVCSSRGKGCYNTRLKEDGGCTIWYNEMQLLSEIEEHLNCTISQVEPDIKVPVDEFDGKVTYGQKRAAGGGSYKGHVDILAPTVQELAALEKEAQTSFLHLGYLPNQLFRTF
B3: GTF2I: protein with methylated lysine identified in 3xMBT pull-down (protein, UniProt P78347 2-998, looked up)
General transcription factor …: AQVAMSTLPVEDEESSESRMVVTFLMSALESMCKELAKSKAEVACIAVYETDVFVVGTERGRAFVNTRKDFQKDFVKYCVEEEEKAAEMHKMKSTTQANRMSVDAVEIETLRKTVEDYFCFCYGKALGKSTVVPVPYEKMLRDQSAVVVQGLPEGVAFKHPENYDLATLKWILENKAGISFIIKRPFLEPKKHVGGRVMVTDADRSILSPGGSCGPIKVKTEPTEDSGISLEMAAVTVKEESEDPDYYQYNIQAGPSETDDVDEKQPLSKPLQGSHHSSEGNEGTEMEVPAEDSTQHVPSETSEDPEVEVTIEDDDYSPPSKRPKANELPQPPVPEPANAGKRKVREFNFEKWNARITDLRKQVEELFERKYAQAIKAKGPVTIPYPLFQSHVEDLYVEGLPEGIPFRRPSTYGIPRLERILLAKERIRFVIKKHELLNSTREDLQLDKPASGVKEEWYARITKLRKMVDQLFCKKFAEALGSTEAKAVPYQKFEAHPNDLYVEGLPENIPFRSPSWYGIPRLEKIIQVGNRIKFVIKRPELLTHSTTEVTQPRTNTPVKEDWNVRITKLRKQVEEIFNLKFAQALGLTEAVKVPYPVFESNPEFLYVEGLPEGIPFRSPTWFGIPRLERIVRGSNKIKFVVKKPELVISYLPPGMASKINTKALQSPKRPRSPGSNSKVPEIEVTVEGPNNNNPQTSAVRTPTQTNGSNVPFKPRGREFSFEAWNAKITDLKQKVENLFNEKCGEALGLKQAVKVPFALFESFPEDFYVEGLPEGVPFRRPSTFGIPRLEKILRNKAKIKFIIKKPEMFETAIKESTSSKSPPRKINSSPNVNTTASGVEDLNIIQVTIPDDDNERLSKVEKARQLREQVNDLFSRKFGEAIGMGFPVKVPYRKITINPGCVVVDGMPPGVSFKAPSYLEISSMRRILDSAEFIKFTVIRPFPGLVINNQLVDQSESEGPVIQESAEPSQLEVPATEEIKETDGSSQIKQEPDPTW
modifications: methylated lysine
notes: as for B1
B4: CMAS: protein with methylated lysine identified in 3xMBT pull-down (protein, UniProt Q8NFW8 1-434, looked up)
N-acylneuraminate …: MDSVEKGAATSVSNPRGRPSRGRPPKLQRNSRGGQGRGVEKPPHLAALILARGGSKGIPLKNIKHLAGVPLIGWVLRAALDSGAFQSVWVSTDHDEIENVAKQFGAQVHRRSSEVSKDSSTSLDAIIEFLNYHNEVDIVGNIQATSPCLHPTDLQKVAEMIREEGYDSVFSVVRRHQFRWSEIQKGVREVTEPLNLNPAKRPRRQDWDGELYENGSFYFAKRHLIEMGYLQGGKMAYYEMRAEHSVDIDVDIDWPIAEQRVLRYGYFGKEKLKEIKLLVCNIDGCLTNGHIYVSGDQKEIISYDVKDAIGISLLKKSGIEVRLISERACSKQTLSSLKLDCKMEVSVSDKLAVVDEWRKEMGLCWKEVAYLGNEVSDEECLKRVGLSGAPADACSTAQKAVGYICKCNGGRGAIREFAEHICLLMEKVNNSCQK
B5: eEF1A1: protein with methylated lysine identified in 3xMBT pull-down (protein, UniProt P68104 2-462, looked up)
Elongation factor 1-alpha 1: GKEKTHINIVVIGHVDSGKSTTTGHLIYKCGGIDKRTIEKFEKEAAEMGKGSFKYAWVLDKLKAERERGITIDISLWKFETSKYYVTIIDAPGHRDFIKNMITGTSQADCAVLIVAAGVGEFEAGISKNGQTREHALLAYTLGVKQLIVGVNKMDSTEPPYSQKRYEEIVKEVSTYIKKIGYNPDTVAFVPISGWNGDNMLEPSANMPWFKGWKVTRKDGNASGTTLLEALDCILPPTRPTDKPLRLPLQDVYKIGGIGTVPVGRVETGVLKPGMVVTFAPVNVTTEVKSVEMHHEALSEALPGDNVGFNVKNVSVKDVRRGNVAGDSKNDPPMEAAGFTAQVIILNHPGQISAGYAPVLDCHTAHIACKFAELKEKIDRRSGKKLEDGPKFLKSGDAAIVDMVPGKPMCVESFSDYPPLGRFAVRDMRQTVAVGVIKAVDKKAAGAGKVTKSAQKAQKAK
modifications: methylated lysine
notes: as for B1

One assay deals with 3×MBT domain of L3MBTL1. In words: Triple SILAC pull-down, 3xMBT/3xMBTD355N ratio (cytoplasmic, nuclear and chromatin fractions of 293T cells).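 Also: proteins quantified with MaxQuant, requiring at least two unique peptides and quantification in both label directions, normalized to the mean of proteins from a digested loading control.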 It counts as binding, human. Conditions: SILAC ratio, pull-down 3xMBT vs 3xMBTD355N; experiment with UNC0638 in heavy SILAC media.
With B1, the “3xMBT/D355N UNC Heavy” value is reported as 1.92 log base 2.
Same read-out and setting: the figure for B2 is 3.07 log base 2; for B3 it is 3.02 log base 2; for B4 it is 2.71 log base 2.
Still for that read-out and setting: as for B5, the figure is 3.08 log base 2.

Still in this assay, the particulars now being: SILAC ratio, pull-down 3xMBT vs 3xMBTD355N; experiment with UNC0638 in light SILAC media.
Regarding B1, the “3xMBT/D355N UNC Light” value stood at 2.16 log base 2.
The same measure, in the same setting: as for B2, the figure is 3.64 log base 2.
Still for that read-out and setting: as for B3, the figure is 2.75 log base 2; as for B4, 2.86 log base 2; as for B5, 2.87 log base 2.

The next assay relates to 3×MBT domain of L3MBTL1. In words: SILAC proteomic pull-down 3×MBT vs 3×MBTD355N from 293T nuclear extract, LC-MS/MS. It counts as binding, human. Particulars: SILAC ratio, 293T nuclear extract pull-down; * = protein identified in only one labeling experiment. Here is the method: Protein pull-downs were performed as described above using 600 μg of nuclear extract prepared with isotopic labels as indicated. After eluting with glutathione, 3×MBT domain was removed by dialysis into high salt and rebinding to GSH-sepharose. Bound proteins were separated by SDS-PAGE and analyzed by in-gel tryptic digest followed by LC-MS/MS. Peptides were identified using MaxQuant version 1.2.2.5 (Cox and Mann (2008) Nat. Biotechnol. 26, 1367-1372) and candidate methylated peptides were verified by manual inspection.
For stable isotope labeling by amino acids in cell culture (SILAC) experiments HEK 293T cells were grown for at least six doublings in DMEM for SILAC supplemented with 10% dialyzed fetal bovine serum (FBS), 230 mg/L L-proline and either 100 mg/L each of L-lysine and L-arginine (“light” medium), D4-L-lysine and ^13C6-L-arginine (“medium” media), or ^13C6^15N2-L-lysine and ^13C6^15N4-L-arginine (Thermo Scientific). Heavy methyl labeling used DMEM without L-Methionine or L-Cysteine supplemented with D3^13C-L-Methionine (Sigma), L-Cysteine (Sigma) and 10% dialyzed FBS.
600 μg of nuclear extract was incubated overnight rotating at 4° C. with 20 μl packed 3×MBT or 3×MBTD355N beads in a total volume of 250 μL with binding buffer. Supernatant was removed and saved for use as a loading control. Beads were washed 4×5 minutes with 0.5 mL binding buffer. Protein was eluted by incubating in 20 μL elution buffer (10 mg/mL glutathione in 50 mM Tris pH 8.0) rotating at 4° C. for four hours. Elutions from 3×MBT and 3×MBTD355N were combined and dialyzed overnight at 4° C. against 10,000× volume of dissociation buffer (50 mM Tris pH 7.5, 750 mM NaCl) in a 0.1 mL Slide-A-Lyzer MINI Dialysis Device with 3.5K molecular weight cutoff (Thermo Scientific). 80 μL of GSH-Sepharose was prepared by washing briefly three times with 0.5 mL binding buffer. Dialyzed proteins were added to the GSH-Sepharose and incubated 4 hours rotating at 4° C. to deplete the GST-fusion domains. Supernatant was transferred to a fresh 1.5 mL tube. Proteins were separated by SDS-PAGE on a 10% polyacrylamide gel and stained using SilverQuest Silver Staining Kit (Life Technologies). Lanes were excised, residual 3×MBT band was removed, and gel was diced into 0.5 mm cubes. Gel pieces were destained and processed by in-gel digestion (Carlson et al. (2011) Science Signaling 4) with sequencing grade trypsin (Promega) and the peptide sample was dried completely in a vacuum centrifuge. To prepare a loading control, 2 μL each of light and heavy nuclear extract were combined, 6 μL of 8M urea was added, proteins were denatured by adding 2 μL of 100 mM dithiothreitol in digest buffer (50 mM ammonium bicarbonate) and heating to 60° C. for 1 hour, cysteine was alkylated by adding 2.2 μL 100 mg/mL iodoacetamide in digest buffer and incubating 1 hour at room temperature in darkness, and proteins were digested by adding 80 μL trypsin (Promega) at 12.5 ng/μL in digest buffer and incubating overnight at room temperature in darkness. Digestion was stopped by adding 10 μL of 10% formic acid.
Each experiment consisted of two sets of pull-downs: “forward” labeling with 3×MBT incubated with light nuclear extract and 3×MBTD355N with medium extract, and a second “reverse” labeling experiment with the label conditions swapped. Proteins were included in the results if they were quantified in both labeling directions. To determine reproducibility the entire experiment including the label swap was duplicated using independent protein preparations and a mass spectrometer at another institution.
For 3×MBT pull-down experiment #1 the gel lane was processed and peptides were loaded off-line onto a first dimension trap column (Waters Xbridge, C18, 10 μm particle size, 100 Å pore size, 5 cm packing length, 150 μm column i.d.). […]
For B1, the “Protein Ratio 3xMBT/D355N” value turned out to be 6.6.
Still for that read-out and setting: as for B2, the figure is 11.2; as for B3, 1.5; as for B4, 4.2.
As to B5, the “Protein Ratio 3xMBT/D355N” value stood at 5.2.

Values taken from patent publication US20140274782A1, “AFFINITY REAGENTS AND METHODS FOR DETECTION, PURIFICATION, AND PROTEOMIC ANALYSIS OF METHYLATED PROTEINS” (The Board of Trustees of the Leland Stanford Junior …, priority 2013, published 2014).
